Reference: paper PMC13168245 (Nature Communications, 2026)

What was measured:
AMC008-b12 complex = target: T1, AMC008-b12 complex (HIV-1 clade B, isolate AMC008 …, stabilised); test: mass photometry; AMC008 with two excess Fabs (b12 and 3BC315, or VRC01 and 3BC315), 1:9 molar ratio in PBS, on ice 30 minutes, diluted in PBS; mass increase divided by 55 kDa per Fab; conditions: both partners purified
T1 construct: source: formed from purified AMC008 Env (Expi293F) and excess b12 Fab (1:9 molar ratio in PBS, on ice 30 minutes); copies: 3 + 3 + 3 + 3

AMC008-VRC01 complex = target: T2, AMC008-VRC01 complex (HIV-1 clade B, isolate AMC008 …, stabilised); test: as above; conditions: both partners purified
T2 construct: source: formed from purified AMC008 Env (Expi293F) and excess VRC01 Fab (1:9 molar ratio in PBS, on ice 30 minutes); copies: 3 + 3 + 3 + 3

B1: antibody 3BC315 Fab (Fab, V domains shown)
VH: QVQLVQSGAEMKDPGASVKVSCRASGYKFTDYYMHWVRQAPGQGLEWVGWVNTNGGFTKYGAKFQGRVTVTRDTSTNTVFLELSRLTFGDTAMYFCARPMRPVSHGIDYSGLFVFQFWGRGTMVTVSS
VL: QSALTQPASVSASPGQSITISCSGTRSDVGGYDFVSWYQQHPGKVPKLIIYEVTKRPSGIPQRFSGSKSGNTASLTISGLQADDEADYYCCSYANYDKLILGGGTKLTVL
notes: source: Expi293F, heavy and light chain co-expressed; IgG purified on Protein A, digested with papain, Fab in the Protein A flow-through
Question: Which “stoichiometry N” value (AMC008-b12 complex) does the source give for B1 here?
Answer: ~3 Fabs

Question: And the “stoichiometry N” value (AMC008-VRC01 complex)?
Answer: ~1 Fab
